Reference: the Immune Epitope Database (IEDB)
Blank lines part the entries; values can stand above or below the sequence they belong to.

Key:
HLA-B*44:02 [1] = test: IEDB peptide-MHC binding, purified MHC/competitive/radioactivity; filed as Kd, often an IC50 or EC50 that approximates it; ≥ and ≤ were set here for values at or beyond the usual limits of such assays; conditions: source organism: Dengue virus 1 Brazil/97-11/1997
HLA-B*58:01 [2] = test: as above
HLA-A*01:01 = test: IEDB peptide-MHC binding, purified MHC/direct/fluorescence; filed as Kd, often an IC50 or EC50 that approximates it; ≥ and ≤ were set here for values at or beyond the usual limits of such assays
HLA-A*02:01 = test: as above
HLA-A*03:01 [3] = test: as above
HLA-A*11:01 = test: as above
HLA-A*24:03 [4] = test: as above
HLA-A*26:01 [5] = test: as above
HLA-A*30:01 = test: as above
HLA-A*31:01 = test: as above
HLA-A*69:01 [6] = test: as above
HLA-B*07:02 = test: as above
HLA-B*08:01 = test: as above
HLA-B*15:01 [7] = test: as above
HLA-B*27:05 = test: as above
HLA-B*35:01 = test: as above; conditions: source organism: Escherichia coli O157:H7
HLA-B*40:01 = test: as above
HLA-B*44:02 [8] = test: as above
HLA-B*58:01 [9] = test: as above
HLA-B*18:01 [10] = test: as above; conditions: source organism: West Nile virus
HLA-B*46:01 [11] = test: as above; conditions: source organism: West Nile virus
HLA-B*48:01 = test: as above; conditions: source organism: West Nile virus
HLA-B*57:01 [12] = test: as above; conditions: source organism: West Nile virus
HLA-A*26:01 [13] = test: IEDB peptide-MHC binding, purified MHC/competitive/fluorescence; filed as Kd, often an IC50 or EC50 that approximates it; ≥ and ≤ were set here for values at or beyond the usual limits of such assays
HLA-B*39:01 = test: as above
HLA-A*02:19 = test: as above; conditions: source organism: Mycobacterium tuberculosis variant bovis BCG str. Pasteur 1173P2
HLA-A*03:01 [14] = test: as above; conditions: source organism: Mycobacterium tuberculosis variant bovis BCG str. Pasteur 1173P2
HLA-A*24:03 [15] = test: as above; conditions: source organism: Mycobacterium tuberculosis variant bovis BCG str. Pasteur 1173P2
HLA-A*29:02 = test: as above; conditions: source organism: Mycobacterium tuberculosis variant bovis BCG str. Pasteur 1173P2
HLA-A*68:02 = test: as above; conditions: source organism: Mycobacterium tuberculosis variant bovis BCG str. Pasteur 1173P2
HLA-A*69:01 [16] = test: as above; conditions: source organism: Mycobacterium tuberculosis variant bovis BCG str. Pasteur 1173P2
HLA-B*15:01 [17] = test: as above; conditions: source organism: Mycobacterium tuberculosis variant bovis BCG str. Pasteur 1173P2
HLA-B*15:17 = test: as above; conditions: source organism: Mycobacterium tuberculosis variant bovis BCG str. Pasteur 1173P2
HLA-B*18:01 [18] = test: as above; conditions: source organism: Mycobacterium tuberculosis variant bovis BCG str. Pasteur 1173P2
HLA-B*27:03 = test: as above; conditions: source organism: Mycobacterium tuberculosis variant bovis BCG str. Pasteur 1173P2
HLA-B*46:01 [19] = test: as above; conditions: source organism: Mycobacterium tuberculosis variant bovis BCG str. Pasteur 1173P2
HLA-B*51:01 = test: as above; conditions: source organism: Mycobacterium tuberculosis variant bovis BCG str. Pasteur 1173P2
HLA-B*57:01 [20] = test: as above; conditions: source organism: Mycobacterium tuberculosis variant bovis BCG str. Pasteur 1173P2
[21] = source organism: Escherichia coli O157:H7
[22] = source organism: West Nile virus
[23] = source organism: Pseudomonas putida
[24] = source organism: Pseudomonas aeruginosa
[25] = source organism: Mycobacterium tuberculosis variant bovis BCG str. Pasteur 1173P2
[26] = source organism: Giardia lamblia ATCC 50803
[27] = source organism: Yersinia pestis

Sequence: ERSWNSGYDW
Kd (HLA-B*44:02 [1]): 856 nM
Kd (HLA-B*58:01 [2]; source organism: Dengue virus 1 Brazil/97-11/1997): 95.6 nM

Kd (HLA-A*01:01; [21]): 0.535 µM
Kd (HLA-A*02:01; [21]): ≥ 20 µM
Kd (HLA-A*03:01 [3]; [21]): 3.25 µM
Kd (HLA-A*11:01; [21]): 2560 nM
Kd (HLA-A*24:03 [4]; [21]): ≥ 20 µM
Kd (HLA-A*26:01 [5]; [21]): 205 nM
Kd (HLA-A*30:01; [21]): 2130 nM
Kd (HLA-A*31:01; [21]): ≥ 20 µM
Kd (HLA-A*69:01 [6]; [21]): ≥ 20 µM
Kd (HLA-B*07:02; [21]): ≥ 20 µM
Kd (HLA-B*08:01; [21]): ≥ 20 µM
Kd (HLA-B*15:01 [7]; [21]): 108 nM
Kd (HLA-B*27:05; [21]): ≥ 20 µM
Kd (HLA-B*35:01): 861 nM
Kd (HLA-B*40:01; [21]): ≥ 20 µM
Kd (HLA-B*44:02 [8]; [21]): ≥ 20 µM
Kd (HLA-B*58:01 [9]; [21]): 4.05 µM
Sequence: ITAGYNRYY

Sequence: KHVQRIETW
Kd (HLA-B*58:01 [2]; source organism: Dengue virus 2 Jamaica/1409/1983): 145 nM

Sequence: LASAILNAHK
Kd (HLA-B*58:01 [2]; source organism: Dengue virus 4 Dominica/814669/1981): 3460 nM

Sequence: LYAVTTAVL
Kd (HLA-A*01:01; [22]): ≥ 20 µM
Kd (HLA-A*03:01 [3]; [22]): ≥ 20 µM
Kd (HLA-A*30:01; source organism: West Nile virus strain PTRoxo): ≥ 20000 nM
Kd (HLA-A*31:01; [22]): ≥ 20 µM
Kd (HLA-A*69:01 [6]; [22]): ≥ 20 µM
Kd (HLA-B*15:01 [7]; [22]): ≥ 20000 nM
Kd (HLA-B*18:01 [10]): ≥ 20 µM
Kd (HLA-B*27:05; [22]): ≥ 20 µM
Kd (HLA-B*40:01; [22]): ≥ 20 µM
Kd (HLA-B*44:02 [8]; [22]): ≥ 20 µM
Kd (HLA-B*46:01 [11]): ≥ 20 µM
Kd (HLA-B*48:01): ≥ 20 µM
Kd (HLA-B*57:01 [12]): ≥ 20 µM
Kd (HLA-B*58:01 [9]; [22]): ≥ 20 µM
Kd (HLA-A*26:01 [13]; [22]): ≥ 20 µM
Kd (HLA-B*39:01; [22]): 459 nM

Kd (HLA-A*01:01; [23]): ≥ 20 µM
Kd (HLA-A*02:01; [23]): ≥ 20 µM
Kd (HLA-A*03:01 [3]; [23]): ≥ 20 µM
Kd (HLA-A*11:01; [24]): 67.3 nM
Kd (HLA-A*24:03 [4]; [23]): ≥ 20 µM
Kd (HLA-A*26:01 [5]; [23]): ≥ 20000 nM
Kd (HLA-A*30:01; [24]): 2100 nM
Kd (HLA-A*69:01 [6]; [23]): ≥ 20 µM
Kd (HLA-B*07:02; [23]): ≥ 20 µM
Kd (HLA-B*08:01; [23]): ≥ 20 µM
Kd (HLA-B*15:01 [7]; [23]): ≥ 20000 nM
Kd (HLA-B*27:05; [23]): ≥ 20 µM
Kd (HLA-B*40:01; [23]): ≥ 20 µM
Kd (HLA-B*58:01 [9]; [23]): ≥ 20 µM
Sequence: NWDWGVFFK

Sequence: RLAPEPVYT
Kd (HLA-A*02:19): 93.2 nM
Kd (HLA-A*03:01 [14]): ≥ 20 µM
Kd (HLA-A*24:03 [15]): ≥ 20 µM
Kd (HLA-A*26:01 [13]; [25]): ≥ 20 µM
Kd (HLA-A*29:02): 3000 nM
Kd (HLA-A*68:02): ≥ 20 µM
Kd (HLA-A*69:01 [16]): ≥ 20 µM
Kd (HLA-B*15:01 [17]): ≥ 20 µM
Kd (HLA-B*15:17): ≥ 20 µM
Kd (HLA-B*18:01 [18]): ≥ 20 µM
Kd (HLA-B*27:03): ≥ 20 µM
Kd (HLA-B*39:01; [25]): ≥ 20000 nM
Kd (HLA-B*46:01 [19]): ≥ 20 µM
Kd (HLA-B*51:01): ≥ 20 µM
Kd (HLA-B*57:01 [20]): ≥ 20 µM

Sequence: TAAVLLLITH
Kd (HLA-B*58:01 [2]; source organism: Dengue virus 3 Martinique/1243/1999): 751 nM

Sequence: TTIEDILPK
Kd (HLA-A*01:01; [26]): ≥ 20 µM
Kd (HLA-A*02:01; [26]): ≥ 20 µM
Kd (HLA-A*03:01 [3]; [26]): 2.84 µM
Kd (HLA-A*11:01; [26]): 9.2 nM
Kd (HLA-A*24:03 [4]; [26]): ≥ 20 µM
Kd (HLA-A*26:01 [5]; [26]): 478 nM
Kd (HLA-A*30:01; [26]): 471 nM
Kd (HLA-A*31:01; [26]): 2.09 µM
Kd (HLA-A*69:01 [6]; [26]): ≥ 20 µM
Kd (HLA-B*07:02; [26]): ≥ 20 µM
Kd (HLA-B*08:01; [26]): ≥ 20 µM
Kd (HLA-B*15:01 [7]; [26]): ≥ 20000 nM
Kd (HLA-B*27:05; [26]): ≥ 20 µM
Kd (HLA-B*40:01; [26]): ≥ 20 µM
Kd (HLA-B*44:02 [8]; [26]): ≥ 20 µM
Kd (HLA-B*58:01 [9]; [26]): ≥ 20 µM

Sequence: YGLGSTPLY
Kd (HLA-A*01:01; [27]): 14.1 µM
Kd (HLA-A*02:01; [27]): ≥ 20 µM
Kd (HLA-A*03:01 [3]; [27]): ≥ 20 µM
Kd (HLA-A*11:01; [27]): ≥ 20000 nM
Kd (HLA-A*26:01 [5]; [27]): 5870 nM
Kd (HLA-A*30:01; [27]): 3590 nM
Kd (HLA-A*31:01; [27]): ≥ 20 µM
Kd (HLA-A*69:01 [6]; [27]): ≥ 20 µM
Kd (HLA-B*07:02; [27]): ≥ 20 µM
Kd (HLA-B*08:01; [27]): ≥ 20 µM
Kd (HLA-B*15:01 [7]; [27]): 332 nM
Kd (HLA-B*27:05; [27]): ≥ 20 µM
Kd (HLA-B*40:01; [27]): ≥ 20 µM
Kd (HLA-B*44:02 [8]; [27]): ≥ 20 µM
Kd (HLA-B*58:01 [9]; [27]): 10.4 µM
